# Experimental data reported in US20240279278A1, “NMU RECEPTOR 2 AGONISTS” (Boehringer Ingelheim International GmbH, priority 2023, published 2024).
# T1: human neuromedin U receptor 1 (human, UniProt Q9HB89 24-426)
# T1 sequence (looked up): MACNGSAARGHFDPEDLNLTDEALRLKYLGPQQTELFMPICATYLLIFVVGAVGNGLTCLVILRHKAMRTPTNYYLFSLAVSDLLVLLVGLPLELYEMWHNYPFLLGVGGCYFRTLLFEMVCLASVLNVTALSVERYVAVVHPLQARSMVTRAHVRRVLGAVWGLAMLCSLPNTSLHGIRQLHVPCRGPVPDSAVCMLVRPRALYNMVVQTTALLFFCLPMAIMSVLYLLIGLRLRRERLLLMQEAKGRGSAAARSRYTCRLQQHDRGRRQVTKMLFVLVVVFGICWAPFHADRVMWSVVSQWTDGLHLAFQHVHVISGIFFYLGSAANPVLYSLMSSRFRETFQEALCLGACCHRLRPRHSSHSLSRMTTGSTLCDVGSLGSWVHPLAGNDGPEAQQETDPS
# Target: T1, human neuromedin U receptor 1
# Assay: cell-based or functional assay
row,EC50 (hNMUR1) buffer,Binder
1,610 nM,EEEEXXXXXXXXXXXXXXXXYFLXKPRG (HELM PEPTIDE1{[O=C(O)CCCCCCCCCCCCCCCCCCC(=O)[*:2]].[gGlu].[gGlu].[gGlu].[gGlu].[Sar].[Sar].[Sar].[Sar].[Sar].[Sar].[Sar].[Sar].[Sar].[Sar].[Sar].[Sar].[Sar].[Sar].[Sar].[O=C(CN1CCN(CCN[*:1])CC1)[*:2]].Y.F.[meL].[Nle].K.P.R.G.[am]}$$$$V2.0; SMILES CCCC[C@H](NC(=O)[C@H](CC(C)C)N(C)C(=O)[C@H](Cc1ccccc1)NC(=O)[C@H](Cc1ccc(O)cc1)NC(=O)CN1CCN(CCNC(=O)CN(C)C(=O)CN(C)C(=O)CN(C)C(=O)CN(C)C(=O)CN(C)C(=O)CN(C)C(=O)CN(C)C(=O)CN(C)C(=O)CN(C)C(=O)CN(C)C(=O)CN(C)C(=O)CN(C)C(=O)CN(C)C(=O)CN(C)C(=O)CN(C)C(=O)CC[C@H](NC(=O)CC[C@H](NC(=O)CC[C@H](NC(=O)CC[C@H](NC(=O)CCCCCCCCCCCCCCCCCCC(=O)O)C(=O)O)C(=O)O)C(=O)O)C(=O)O)CC1)C(=O)N[C@@H](CCCCN)C(=O)N1CCC[C@H]1C(=O)N[C@@H](CCCNC(=N)N)C(=O)NCC(N)=O) [C20DA-gGlu4-Sar15-AEPipAc-Tyr-Phe-NMeLeu-Nle-Lys-Pro-Arg-Gly-NH2]
2,440 nM,EEEEXXXXXXXXXXXXXXXXYFLXXPRG (HELM PEPTIDE1{[O=C(O)CCCCCCCCCCCCCCCCCCC(=O)[*:2]].[gGlu].[gGlu].[gGlu].[gGlu].[Sar].[Sar].[Sar].[Sar].[Sar].[Sar].[Sar].[Sar].[Sar].[Sar].[Sar].[Sar].[Sar].[Sar].[Sar].[O=C(CN1CCN(CCN[*:1])CC1)[*:2]].Y.F.[meL].[Nle].[Orn].P.R.G.[am]}$$$$V2.0; SMILES CCCC[C@H](NC(=O)[C@H](CC(C)C)N(C)C(=O)[C@H](Cc1ccccc1)NC(=O)[C@H](Cc1ccc(O)cc1)NC(=O)CN1CCN(CCNC(=O)CN(C)C(=O)CN(C)C(=O)CN(C)C(=O)CN(C)C(=O)CN(C)C(=O)CN(C)C(=O)CN(C)C(=O)CN(C)C(=O)CN(C)C(=O)CN(C)C(=O)CN(C)C(=O)CN(C)C(=O)CN(C)C(=O)CN(C)C(=O)CN(C)C(=O)CC[C@H](NC(=O)CC[C@H](NC(=O)CC[C@H](NC(=O)CC[C@H](NC(=O)CCCCCCCCCCCCCCCCCCC(=O)O)C(=O)O)C(=O)O)C(=O)O)C(=O)O)CC1)C(=O)N[C@@H](CCCN)C(=O)N1CCC[C@H]1C(=O)N[C@@H](CCCNC(=N)N)C(=O)NCC(N)=O) [C20DA-gGlu4-Sar15-AEPipAc-Tyr-Phe-NMeLeu-Nle-Orn-Pro-Arg-Gly-NH2]
3,> 1000 nM,EEEEXXXXXXXXXXXXXXXXYFLXKARG (HELM PEPTIDE1{[O=C(O)CCCCCCCCCCCCCCCCCCC(=O)[*:2]].[gGlu].[gGlu].[gGlu].[gGlu].[Sar].[Sar].[Sar].[Sar].[Sar].[Sar].[Sar].[Sar].[Sar].[Sar].[Sar].[Sar].[Sar].[Sar].[Sar].[O=C(CN1CCN(CCN[*:1])CC1)[*:2]].Y.F.[meL].[Nle].K.[meA].R.G.[am]}$$$$V2.0; SMILES CCCC[C@H](NC(=O)[C@H](CC(C)C)N(C)C(=O)[C@H](Cc1ccccc1)NC(=O)[C@H](Cc1ccc(O)cc1)NC(=O)CN1CCN(CCNC(=O)CN(C)C(=O)CN(C)C(=O)CN(C)C(=O)CN(C)C(=O)CN(C)C(=O)CN(C)C(=O)CN(C)C(=O)CN(C)C(=O)CN(C)C(=O)CN(C)C(=O)CN(C)C(=O)CN(C)C(=O)CN(C)C(=O)CN(C)C(=O)CN(C)C(=O)CC[C@H](NC(=O)CC[C@H](NC(=O)CC[C@H](NC(=O)CC[C@H](NC(=O)CCCCCCCCCCCCCCCCCCC(=O)O)C(=O)O)C(=O)O)C(=O)O)C(=O)O)CC1)C(=O)N[C@@H](CCCCN)C(=O)N(C)[C@@H](C)C(=O)N[C@@H](CCCNC(=N)N)C(=O)NCC(N)=O) [C20DA-gGlu4-Sar15-AEPipAc-Tyr-Phe-NMeLeu-Nle-Lys-NMeAla-Arg-Gly-NH2]

# Further lines, the binder ahead of its results:
row,Binder,EC50 (hNMUR1) buffer
1,EEEEXXXXXXXXXXXXXYFLXKARG (HELM PEPTIDE1{[O=C(O)CCCCCCCCCCCCCCCCCCC(=O)[*:2]].[gGlu].[gGlu].[gGlu].[gGlu].[Sar].[Sar].[Sar].[Sar].[Sar].[Sar].[Sar].[Sar].[Sar].[Sar].[Sar].[Sar].[O=C(CN1CCN(CCN[*:1])CC1)[*:2]].Y.F.[meL].[Nle].K.[meA].R.G.[am]}$$$$V2.0; SMILES CCCC[C@H](NC(=O)[C@H](CC(C)C)N(C)C(=O)[C@H](Cc1ccccc1)NC(=O)[C@H](Cc1ccc(O)cc1)NC(=O)CN1CCN(CCNC(=O)CN(C)C(=O)CN(C)C(=O)CN(C)C(=O)CN(C)C(=O)CN(C)C(=O)CN(C)C(=O)CN(C)C(=O)CN(C)C(=O)CN(C)C(=O)CN(C)C(=O)CN(C)C(=O)CN(C)C(=O)CC[C@H](NC(=O)CC[C@H](NC(=O)CC[C@H](NC(=O)CC[C@H](NC(=O)CCCCCCCCCCCCCCCCCCC(=O)O)C(=O)O)C(=O)O)C(=O)O)C(=O)O)CC1)C(=O)N[C@@H](CCCCN)C(=O)N(C)[C@@H](C)C(=O)N[C@@H](CCCNC(=N)N)C(=O)NCC(N)=O) [C20DA-gGlu4-Sar12-AEPipAc-Tyr-Phe-NMeLeu-Nle-Lys-NMeAla-Arg-Gly-NH2],1400 nM
2,EEEXXXXXXXXXXXXXXXXYFLXXGRG (HELM PEPTIDE1{[O=C(O)CCCCCCCCCCCCCCCCCCC(=O)[*:2]].[gGlu].[gGlu].[gGlu].[Sar].[Sar].[Sar].[Sar].[Sar].[Sar].[Sar].[Sar].[Sar].[Sar].[Sar].[Sar].[Sar].[Sar].[Sar].[O=C(CN1CCN(CCN[*:1])CC1)[*:2]].Y.F.[meL].[Nle].[Orn].G.R.G.[am]}$$$$V2.0; SMILES CCCC[C@H](NC(=O)[C@H](CC(C)C)N(C)C(=O)[C@H](Cc1ccccc1)NC(=O)[C@H](Cc1ccc(O)cc1)NC(=O)CN1CCN(CCNC(=O)CN(C)C(=O)CN(C)C(=O)CN(C)C(=O)CN(C)C(=O)CN(C)C(=O)CN(C)C(=O)CN(C)C(=O)CN(C)C(=O)CN(C)C(=O)CN(C)C(=O)CN(C)C(=O)CN(C)C(=O)CN(C)C(=O)CN(C)C(=O)CN(C)C(=O)CC[C@H](NC(=O)CC[C@H](NC(=O)CC[C@H](NC(=O)CCCCCCCCCCCCCCCCCCC(=O)O)C(=O)O)C(=O)O)C(=O)O)CC1)C(=O)N[C@@H](CCCN)C(=O)NCC(=O)N[C@@H](CCCNC(=N)N)C(=O)NCC(N)=O) [C20DA-gGlu3-Sar15-AEPipAc-Tyr-Phe-NMeLeu-Nle-Orn-Gly-Arg-Gly-NH2],> 1000 nM
3,EEEEXXXXXXXXXXXXXXXXYFLXXARG (HELM PEPTIDE1{[O=C(O)CCCCCCCCCCCCCCCCCCC(=O)[*:2]].[gGlu].[gGlu].[gGlu].[gGlu].[Sar].[Sar].[Sar].[Sar].[Sar].[Sar].[Sar].[Sar].[Sar].[Sar].[Sar].[Sar].[Sar].[Sar].[Sar].[O=C(CN1CCN(CCN[*:1])CC1)[*:2]].Y.F.[meL].[Nle].[Dab].[meA].R.G.[am]}$$$$V2.0; SMILES CCCC[C@H](NC(=O)[C@H](CC(C)C)N(C)C(=O)[C@H](Cc1ccccc1)NC(=O)[C@H](Cc1ccc(O)cc1)NC(=O)CN1CCN(CCNC(=O)CN(C)C(=O)CN(C)C(=O)CN(C)C(=O)CN(C)C(=O)CN(C)C(=O)CN(C)C(=O)CN(C)C(=O)CN(C)C(=O)CN(C)C(=O)CN(C)C(=O)CN(C)C(=O)CN(C)C(=O)CN(C)C(=O)CN(C)C(=O)CN(C)C(=O)CC[C@H](NC(=O)CC[C@H](NC(=O)CC[C@H](NC(=O)CC[C@H](NC(=O)CCCCCCCCCCCCCCCCCCC(=O)O)C(=O)O)C(=O)O)C(=O)O)C(=O)O)CC1)C(=O)N[C@@H](CCN)C(=O)N(C)[C@@H](C)C(=O)N[C@@H](CCCNC(=N)N)C(=O)NCC(N)=O) [C20DA-gGlu4-Sar15-AEPipAc-Tyr-Phe-NMeLeu-Nle-Dbu-NMeAla-Arg-Gly-NH2],> 1000 nM
4,EEEXXXXXXXXXXXXXXXXYFLXXXRG (HELM PEPTIDE1{[O=C(O)CCCCCCCCCCCCCCCCCCC(=O)[*:2]].[gGlu].[gGlu].[gGlu].[Sar].[Sar].[Sar].[Sar].[Sar].[Sar].[Sar].[Sar].[Sar].[Sar].[Sar].[Sar].[Sar].[Sar].[Sar].[O=C(CN1CCN(CCN[*:1])CC1)[*:2]].Y.F.[meL].[Nle].[Orn].[bAla].R.G.[am]}$$$$V2.0; SMILES CCCC[C@H](NC(=O)[C@H](CC(C)C)N(C)C(=O)[C@H](Cc1ccccc1)NC(=O)[C@H](Cc1ccc(O)cc1)NC(=O)CN1CCN(CCNC(=O)CN(C)C(=O)CN(C)C(=O)CN(C)C(=O)CN(C)C(=O)CN(C)C(=O)CN(C)C(=O)CN(C)C(=O)CN(C)C(=O)CN(C)C(=O)CN(C)C(=O)CN(C)C(=O)CN(C)C(=O)CN(C)C(=O)CN(C)C(=O)CN(C)C(=O)CC[C@H](NC(=O)CC[C@H](NC(=O)CC[C@H](NC(=O)CCCCCCCCCCCCCCCCCCC(=O)O)C(=O)O)C(=O)O)C(=O)O)CC1)C(=O)N[C@@H](CCCN)C(=O)NCCC(=O)N[C@@H](CCCNC(=N)N)C(=O)NCC(N)=O) [C20DA-gGlu3-Sar15-AEPipAc-Tyr-Phe-NMeLeu-Nle-Orn-bAla-Arg-Gly-NH2],> 1000 nM
5,EEEEXXXXXXXXXXXXXYFLXXARG (HELM PEPTIDE1{[O=C(O)CCCCCCCCCCCCCCCCCCC(=O)[*:2]].[gGlu].[gGlu].[gGlu].[gGlu].[Sar].[Sar].[Sar].[Sar].[Sar].[Sar].[Sar].[Sar].[Sar].[Sar].[Sar].[Sar].[O=C(CN1CCN(CCN[*:1])CC1)[*:2]].Y.F.[meL].[Nle].[Dab].[meA].R.G.[am]}$$$$V2.0; SMILES CCCC[C@H](NC(=O)[C@H](CC(C)C)N(C)C(=O)[C@H](Cc1ccccc1)NC(=O)[C@H](Cc1ccc(O)cc1)NC(=O)CN1CCN(CCNC(=O)CN(C)C(=O)CN(C)C(=O)CN(C)C(=O)CN(C)C(=O)CN(C)C(=O)CN(C)C(=O)CN(C)C(=O)CN(C)C(=O)CN(C)C(=O)CN(C)C(=O)CN(C)C(=O)CN(C)C(=O)CC[C@H](NC(=O)CC[C@H](NC(=O)CC[C@H](NC(=O)CC[C@H](NC(=O)CCCCCCCCCCCCCCCCCCC(=O)O)C(=O)O)C(=O)O)C(=O)O)C(=O)O)CC1)C(=O)N[C@@H](CCN)C(=O)N(C)[C@@H](C)C(=O)N[C@@H](CCCNC(=N)N)C(=O)NCC(N)=O) [C20DA-gGlu4-Sar12-AEPipAc-Tyr-Phe-NMeLeu-Nle-Dbu-NMeAla-Arg-Gly-NH2],> 1000 nM
